System: Caco-2 monolayers
Test: Transport of FITC-insulin across Caco-2 monolayer
Assay type: in vitro ADME, human
Protocol: Caco-2 cell line HTB-37 (American Type Culture Collection, Rockville, Md.), derived from human colon cells, was used for all experiments. Cells were maintained at 37° C. in DMEM supplemented with 25 IU/ml of penicillin, 25 mg/L of streptomycin, 250 μg/L of amphotericin B and 100 ml/L of fetal bovine serum. Monolayers were grown on BD Biocoat™ collagen filter supports (Discovery Labware, Bedford. Mass.). […] At the end of the growth period, the integrity of the cell monolayer was confirmed by transepithelial electrical resistance (TEER) measurements (Millicell-ERS voltohmmeter, Millipore. Billerica, Mass.). Only monolayers with TEER values over 300 Ω cm^2 were used for further experimentation. A solution of FITC-insulin in DMEM was placed on Caco-2 monolayers at various concentrations and samples were collected from the basolateral side and analyzed for fluorescence. To determine insulin transport from wafers, FITC-insulin-containing wafers were placed on Caco-2 monolayers. Samples were taken from the basolateral side and analyzed for insulin concentration.

For “insulin free in solution: solution of FITC-insulin in DMEM placed on Caco-2 monolayers”, the “transport of insulin across Caco-2 monolayers” value was “dose-dependent”.
